Reference: PMC11154707, “Polymer-based antibody mimetics (iBodies) target human PD-L1 and function as a potent immune checkpoint blocker” (The Journal of Biological Chemistry, 2024)
One block for each binder: values may come before it.

What was measured:
[1] = target: T1, human PD-L1, membrane-bound, on hPD-L1-transfected CHO cells (human, UniProt Q9NZQ7 19-290); assay: flow cytometry on cells; dilution series on hPD-L1-transfected and wild-type CHO cells in PBS, 30 min at 4 °C; ATTO488 fluorescence; EC50 from MFI by 4-parameter logistic fit; settings: one partner purified
T1 construct: The catalogue suffix -CH may mean a C-terminal His tag (surmise); also called CHO PD-L1; source: CHO cells, stably transfected (pCMV3-full-length human PD-L1, hygromycin selection), on cells

[2] = target: T2, recombinant human PD-L1 extracellular domain (residues 19–239), His-tagged (human, UniProt Q9NZQ7 19-239); assay: ELISA; 100 ng/well rhPD-L1 coated directly on the plate (TBS, 1 h RT), casein block; dilution series of biotinylated binder in TBS with 0.1% Tween-20, 1 h RT; neutravidin-HRP, chemiluminescence; EC50 by 4-parameter logistic fit; settings: both partners purified
T2 construct: programmed death-ligand 1 (PD-L1/CD274/B7-H1), human, extracellular domain residues 19-239, subcloned from pCMV3-full-length human PD-L1 into pTT28; probably removed on secretion (surmise); also called rhPD-L1; recombinant extracellular hPD-L1; source: HEK293-6E, transiently transfected, secreted, purified (Ni-NTA Agarose, dialysis); not shown: His8, C-terminal, kept

[3] = target: T2, recombinant human PD-L1 extracellular …; assay: ELISA; 100 ng/well rhPD-L1 coated directly on the plate, casein block; dilution series of ATTO488-WL12 in TBS with 0.1% Tween-20, 1 h RT; read by ATTO488 fluorescence intensity; EC50 by 4-parameter logistic fit; settings: both partners purified

T2 sequence (Q9NZQ7 19-239): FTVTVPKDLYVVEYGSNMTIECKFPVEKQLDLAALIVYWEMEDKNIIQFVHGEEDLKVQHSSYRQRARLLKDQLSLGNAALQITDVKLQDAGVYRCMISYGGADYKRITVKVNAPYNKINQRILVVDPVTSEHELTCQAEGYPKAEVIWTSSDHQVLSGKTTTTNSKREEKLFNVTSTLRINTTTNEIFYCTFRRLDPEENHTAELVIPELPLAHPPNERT
T1 sequence (Q9NZQ7 19-290): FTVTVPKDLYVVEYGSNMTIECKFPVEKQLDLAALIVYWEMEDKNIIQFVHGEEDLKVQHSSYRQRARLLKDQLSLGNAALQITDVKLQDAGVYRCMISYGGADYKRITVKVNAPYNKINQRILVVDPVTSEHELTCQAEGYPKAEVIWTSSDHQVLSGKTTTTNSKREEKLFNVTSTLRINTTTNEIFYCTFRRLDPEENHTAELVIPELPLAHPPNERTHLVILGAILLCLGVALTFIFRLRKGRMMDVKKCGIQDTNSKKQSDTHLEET

EC50 [1]: 6.6 nM
EC50 [2]: 0.29 nM
B1: iBody 1 (HPMA copolymer carrying WL12, ATTO488 and biotin) (other)
chain: YANPHLPWSWXXXCG
modifications: ClAc on the N-terminus (peptide cyclised, macrocyclic); MeAla at 2; Hyp at 7; Trp(Me) at 10; MeNle at 11 and 12; Orn at 13; C-terminal amide; amino group of the peptide bound to the HPMA copolymer

EC50 [1]: 270 nM
EC50 [3]: 5.3 nM
B2: ATTO488-WL12 (peptide)
chain: YANPHLPWSWXXXCG
modifications: ClAc on the N-terminus (peptide cyclised, macrocyclic); MeAla at 2; Hyp at 7; Trp(Me) at 10; MeNle at 11 and 12; Orn at 13; C-terminal amide; ATTO488 fluorophore (site not told in the text shown)
